Measurements: the supplement of paper PMC10567573

B1: CDC25B (parent)
chain: ELKTFRLKTRSWAGERSRRELCSR
B2: KRT71 (parent)
chain: FGSRSLYSLGGVRSLNVASGSGKS

Variants of: B1
Assay: protein stability index of a GFP-peptide fusion (GPS, HEK-293T) (PSI 1-6); higher = more stable
Settings: c terminus: a fixed tail appended
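Note: lentivirally expressed fusions sorted by FACS into six bins by GFP to DsRed ratio, PSI derived from sequencing read proportions per bin multiplied by bin number.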

Protein stability index, by site and new letter:
E1: F 1.95 | K 2.97 | D 3.03 | L 2.8 | I 1.9 | A 3.96 | M 2.2 | C 3.07 | H 3.29 | G 3.09

Variants of: B2
Assay: as above
Settings: c terminus: a fixed tail appended

Protein stability index of substitutions, site by site:
V17: L 2.5 | M 2.38 | S 1.92 | C 2.31 | T 2.52 | Q 1.97 | G 1.91 | I 1.94 | Y 2.07 | W 1.86 | P 1.92 | F 2.17 | D 2.13 | A 1.91 | N 1.83 | H 1.97 | E 1.59 | R 1.7 | K 2.01
Y7: W 2.05 | S 3.89 | V 2.83 | T 2.55
V12: N 2.28 | H 1.68 | W 1.71 | Q 2.11 | L 2.21 | M 1.68 | K 2 | C 1.55 | P 2.2 | T 2.27 | R 2.37 | G 2.13 | F 1.66 | A 1.81 | D 2.05 | I 2.12 | Y 1.65 | E 2.3 | S 2.45
S21: F 1.73 | N 1.69 | T 1.93 | E 1.92 | H 2.11 | G 1.91 | A 1.83 | D 2.04 | L 2.11 | V 1.41 | C 1.49 | R 2.5 | P 2.07 | M 1.87 | W 1.24 | Q 2.29 | K 2.06 | I 2.18
G20: C 1.54 | Q 1.87 | N 1.82 | M 1.49 | T 2.16 | R 1.97 | D 2.18 | A 1.96 | W 1.82 | S 1.87 | H 1.67 | E 1.49 | P 2 | I 1.72 | Y 1.87 | L 1.55 | V 1.92 | F 2.04 | K 1.5
S14: G 2.04 | E 2.66 | A 1.59 | I 1.38 | F 1.89 | P 1.71 | H 2 | R 1.5 | M 1.65 | N 2.38 | D 1.92 | Y 2.36 | V 1.03 | Q 1.86 | K 1.81 | C 1.58 | W 1.44 | L 2.04 | T 1.74
S24: W 1.74 | M 1.62 | V 1.26 | Y 1.39 | Q 1.55 | D 1.89 | N 1.7 | A 1.73 | P 2.33 | F 1.41 | C 1.71 | E 2.21 | L 1.76 | I 1.61 | G 1.97 | K 2.22 | T 1.81 | H 1.66 | R 1.49
G10: D 2.51 | N 2.16 | M 2.09 | H 2.56 | F 1.5 | E 2.31 | W 2.79 | K 1.9 | S 1.83 | Y 1.94 | T 2.05 | P 2.03 | R 1.6 | C 3.19 | V 1.58 | Q 2.08 | I 3.84 | L 2.6 | A 1.66
S19: C 1.47 | G 1.67 | R 1.92 | E 1.98 | N 2.38 | Y 1.89 | W 2.85 | V 2.54 | Q 2.03 | L 1.47 | I 1.44 | F 1.47 | H 1.53 | A 1.8 | K 2.23 | T 2.06 | M 1.88 | P 1.8 | D 1.89
G22: P 1.89 | W 2.36 | C 1.69 | D 2.15 | M 1.93 | A 1.53 | E 2.83 | K 1.73 | R 2.48 | V 1.33 | L 1.64 | S 1.93 | T 1.45 | I 1.57 | H 2.75 | N 2.27 | F 1.49 | Q 2.09 | Y 2.44
G11: H 2.33 | C 2.87 | E 2.92 | I 5.35 | T 2.4 | Q 3.2 | N 2.24 | S 2.11 | P 1.8 | L 2.9 | K 1.64 | Y 3.77 | R 2.46 | W 2.62 | D 2.25 | M 2.71 | V 4.85
N16: H 2.21 | D 2.38 | W 2.95 | I 1.29 | T 1.47 | C 1.97 | K 2.02 | R 2.07 | G 1.1 | V 2.06 | M 1.83 | P 2.04 | F 2.22 | Y 2.16 | E 1.73 | Q 2.44 | A 1.93 | L 1.73 | S 2.15
L15: C 2.35 | E 2.15 | F 1.77 | W 1.34 | S 1.92 | D 1.61 | V 2.07 | H 1.37 | K 1.99 | Y 2.62 | P 2.02 | N 2.33 | Q 2.51 | A 2.35 | I 1.7 | M 2.18 | G 1.88 | T 1.92 | R 2.28
S8: R 1.69 | W 2.62 | D 3.44 | A 2.17 | M 1.38 | P 1.72 | Q 1.72 | T 1.89 | E 2.75 | K 2.14 | F 1.21 | I 1.54 | H 2.89 | G 2 | Y 1.2 | N 2.4 | V 2.23 | L 2.2 | C 2.1
R13: W 1.67 | Y 1.7 | M 1.26 | P 1.81 | K 1.34 | F 1.72 | Q 1.43 | A 3.09 | G 1.45 | V 1.74 | S 2.48 | T 1.28 | C 2.29 | H 1.81 | E 1.86 | L 2.27 | I 1.93 | D 2.06 | N 1.87
K23: Y 1.69 | F 2.47 | D 1.92 | A 1.47 | R 2.35 | S 1.9 | V 1.88 | N 2.09 | T 1.56 | Q 1.77 | G 2.09 | W 2.56 | L 1.74 | C 1.97 | P 2.15 | H 2.03 | E 2.03 | I 2.12 | M 1.49
A18: L 2.27 | F 1.9 | M 2.95 | W 2.87 | C 1.73 | V 1.88 | N 2.81 | T 1.62 | E 2.11 | Y 2.94 | P 2.2 | I 1.39 | S 2.65 | D 1.62 | Q 1.78 | K 2.63 | G 2.1 | R 2.46 | H 2.39
L9: M 1.83 | K 2.27 | R 2.56 | V 2.62 | F 1.88 | Y 1.77 | D 2.56 | E 2.59 | P 2.6 | G 2.66 | H 2.75 | A 2.5 | C 2.12 | I 1.75 | S 2.18 | W 1.87 | N 2.51 | Q 2.79 | T 2.64
